Series [1] concerns the molecule itself. The series can be described thus: thioflavin T fluorescence of fibril formation.
Series [2] deals with T1, myocilin C-terminal olfactomedin domain (myoc-OLF), cleaved from MBP, wild type (human, UniProt Q99972 228-504).
T1 sequence (looked up): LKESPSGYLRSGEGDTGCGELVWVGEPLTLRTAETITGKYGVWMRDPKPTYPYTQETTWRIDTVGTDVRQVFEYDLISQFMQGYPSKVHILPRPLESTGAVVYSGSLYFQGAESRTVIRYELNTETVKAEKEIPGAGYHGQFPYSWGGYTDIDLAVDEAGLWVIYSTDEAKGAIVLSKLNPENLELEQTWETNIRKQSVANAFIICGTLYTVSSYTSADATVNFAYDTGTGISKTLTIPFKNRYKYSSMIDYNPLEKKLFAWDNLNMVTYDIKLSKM
The series can be described thus: seeded fibril formation followed by thioflavin T fluorescence.

The series “SEC” deals with the molecule itself. The series can be described thus: SEC. A general note: In gel filtration, larger molecules generally elute earlier.

The values that follow come from paper PMC3323732 (Journal of Molecular Biology, 2011).

Where a chain is given by its changes, count along the chain named. Names may count otherwise.

B1: myoc-OLF(Y437H), cleaved from MBP (domain or fragment, human, UniProt Q99972 228-504, looked up)
chain: T1 sequence (looked up) with Y210H
As to B1, the binding result in series [1] and in series [2] was “binds” in each case.

B2: MBP-OLF(P370L) (domain or fragment, human, UniProt Q99972 228-504, looked up)
chain: T1 sequence (looked up) with P143L
For the molecule B2, the binding result in “SEC” is on record as “binds”.

B3: MBP-OLF(Y437H) (domain or fragment, human, UniProt Q99972 228-504, looked up)
chain: T1 sequence (looked up) with Y210H
Regarding B3, the binding result in the series “SEC” is reported as “binds”.

B4: MBP-OLF(245-504) (domain or fragment, human, UniProt Q99972 245-504, looked up)
chain: CGELVWVGEPLTLRTAETITGKYGVWMRDPKPTYPYTQETTWRIDTVGTDVRQVFEYDLISQFMQGYPSKVHILPRPLESTGAVVYSGSLYFQGAESRTVIRYELNTETVKAEKEIPGAGYHGQFPYSWGGYTDIDLAVDEAGLWVIYSTDEAKGAIVLSKLNPENLELEQTWETNIRKQSVANAFIICGTLYTVSSYTSADATVNFAYDTGTGISKTLTIPFKNRYKYSSMIDYNPLEKKLFAWDNLNMVTYDIKLSKM
With B4, the binding result in the series “SEC” was “binds”.

B5: MBP-OLF(245-455) (domain or fragment, human, UniProt Q99972 245-455, looked up)
chain: CGELVWVGEPLTLRTAETITGKYGVWMRDPKPTYPYTQETTWRIDTVGTDVRQVFEYDLISQFMQGYPSKVHILPRPLESTGAVVYSGSLYFQGAESRTVIRYELNTETVKAEKEIPGAGYHGQFPYSWGGYTDIDLAVDEAGLWVIYSTDEAKGAIVLSKLNPENLELEQTWETNIRKQSVANAFIICGTLYTVSSYTSADATVNFAYDT
For B5, in the series “SEC”, the binding result was “binds”.
